Paper doi:10.1101/2025.03.01.640964 (bioRxiv, 2025)
Ends that are not written are not given here. * marks the point of attachment. Biotin = O=C1N[C@H]2[C@H](CS[C@H]2CCCCC(=O)*)N1

Assays:
SteC_(210-429;K256H) = SteC_(210-429;K256H) (Salmonella Typhimurium strain 14028s, UniProt D0ZIB5 210-429, K256H); experiment: BLI; […] (1 ug/ml) […] (SA) biosensors; […]; Octet Red, 25 °C; 50 mM HEPES pH 7.5, 150 mM NaCl, 10 mM MgCl2, 0.5 mM TCEP, 0.05% Tween-20; […]; conditions: both partners purified
SteC_(210-429) WT = SteC_(210-429) WT (Salmonella Typhimurium strain 14028s, UniProt D0ZIB5 210-429); experiment: as above; conditions: both partners purified

B1: N-terminally biotinylated FMNL1 peptide (peptide, UniProt O95466 190-213, looked up)
peptide: Biotin-KGPPSSVPKSRHLTIKLTPAHSRK
SteC_(210-429;K256H)
  Kd: 22 µM
SteC_(210-429) WT
  Kd: 7.9 µM
